Assay results from a protein production outcome set (Wang et al. 2014).

assay: label from the status in PepcDB records

For “RMPTRRWAPGTQCITKCEHTRPKPGELAFRKGDVVTILEACENKSWYRVKHHTSGQEGLLAAGALRER”, which protein production is on record?
Its protein production is “not failed”.

With “RNYNNPVVLCGFAGSTPTGVLAASYIVETLGMHQVAHLISQHIPPVAVFVGGKLRHPFRIYANNSNTVLVAMCEVPISSAHIYEISNTLMNWIDQVGASEIVIMEGSPANGIPEERPVFAVAEKPKLDKFKKAGIQPADSAIIAGMGGGILNECLVRKITGLSFITPTSVDIPDPGAVLSIIEAINKAYNLKIKTDLLEEQVKALDEQIKKIEEQYKELQEKQKEPQSMYG” as the sequence, how does the protein production read?
The protein production was “not failed”.

For “RPNVERDAQRRVNIRVTDEIVTALNERRIVMAFEPVVQAVSRAPAFHECLVRMKQDDGELLLAPDIVPVAEKLGLIRLVDHRVLELVVAELAAAPGVELSLNISPDTTMDADWWASIESLLGANPGVAERLIVEITETVAIQDLDDVRGFVNRLKNFGARIAIDDFGAGYTSFRNLRNLGVDIVKIDGAFVQNIARSADDRAFVQTLIDLARRLEIKTVAEWVQDEASAIMLRDWGCDYIQGRLIGLA”, which protein production is on record?
Its protein production is “failed”.

With “RRAKALLDFERHDDDELGFRKNDIITIISQKDEHCWVGELNGLRGWFPAKFVEVLDERSKEYSIA” as the sequence, how does the protein production read?
Its protein production is “not failed”.

Which protein production does the source give for “RSEIVRLNSLMNDILNNIPVYLFVKDTGNDFRYLYWNKAFAEHSGISVQRAVGSTDADIFPDKKDAEHFREDDLKVMKLGRIEYLENYTTMSGEVRTVTTMKTVVPSGGQHPYIIGVSWDVT” here?
Its protein production is “failed”.

With “RTDRTALIDLMQALNQHMTYTQGATEVDTSAAQAFAGRSGVCQDHTHAFLACARSLGVPARYVSGYLCSEDSEHLSSHAWAEAWIDDAWYSFDVTNQLAIPERHLKLAVGLDYLDACPVRGMRRG” as the sequence, how does the protein production read?
Its protein production is “failed”.

Which protein production does the source give for “RTNRLSAVQSNKMIVRAMERGVSAERLGKALGLSPQTIRQRFRLLNGICAEVVALLGDTDCPANVFNLLRQMKPLRQIEAAELMIGNKNLSVLLAKALLAATPPDQLVMIKKPSQDHQVSAESMARLERELAALQMQIKTVEEDYGPDVLHLTVIKGYLTKLLANAAVVRWLARHQPEYLKEFQSIAELTELPWADNGPEDDLQSTTAEG” here?
The protein production was “not failed”.

For “RVGIIVAAHGNSTASSMVEVATELLGSTPIAAVDMPLTVSPSDILECVAEKMKQVDEGEGVLMLVDMGSLAMLESRLEEKTGISIKTISNVTTSMVLDAVRKVNYLNLNLHAIYQSVTKDFIELWERQPAASGKK”, which protein production is on record?
The protein production was “failed”.

Which protein production does the source give for “SAATMKKAAAEDVNVTFEDQQKINKFARNTSRITELKEEIEVKKKQLQNLEDACDDIMLADDDCLMIPYQIGDVFISHSQEETQEMLEEAKKNLQEEIDALESRVESIQRVLADLKVQLYAKFGSNINLEADES” here?
The protein production was “failed”.

With “SASLLDKAKDFVADKLTAIPKPEGSVTDVDLKDVNRDSVEYLAKVSVTNPYSHSIPICEISFTFHSAGREIGKGKIPDPGSLKAKDMTALDIPVVVSYSILFNLARDVGVDWDIDYELQIGLTIDLPVVGEFTIPISSKGEIKLPTFKDFF” as the sequence, how does the protein production read?
The protein production was “failed”.

Which protein production does the source give for “SAVPGGMFAPSLAVGAGFGLNMSQLLPFLPQSMVVLLGMVGFFAGMTRAPMTGFVIVMEMTDTSGMIIPLMATALIAASVSRLVSRRALYDGQVRLFLPQWRTQAGQ” here?
Its protein production is “failed”.

For “SCEKENIGIEVTPVNAKFIITPVVIDATTGTDVTQSAEISFSKGNGTYEGTPELASESININAKYKGMTGSASVTIPALKAGQFGAKEVTIILSENFFAQEESSNSQIETTKHSGFKNNTSDYWYYITVTYTKKEGSEVIKNDYEGDDSEIKNIIDAYNKGVREDKVTLNDVQVLAHSRFSVFVDYMKTTSVYQIIEKSPKRDGNPVASFTVDSYNTIVSPKNEQIPGHGHAPSHGHGHGHGDDSNAGGGIIIAD”, which protein production is on record?
The protein production was “not failed”.

For “SDESDLPSAMPAVPAFGVEERNMVSGVLTLAERSIRSIMTPRTDVSWVNIDDDAATIRQQLTAAPHSFFPVCRGSLDEVVGIGRAKDLVADLITEGRVRRNRLRDPIIVHESIGILRLMDTLKRSRGQLVLVADEFGAIEGLVTPIDVFEAIAGEFPDEDELPDIVA”, which protein production is on record?
Its protein production is “failed”.

With “SDESGMRTYVRTLSFILSKAVADILPGSKLFIEHSLSNGYYCQIKNAHMITPGEIVRIKERMESLIVADIPFRAHCERTEEVAAMFRSMGYEDKADLLETKGMP” as the sequence, how does the protein production read?
The protein production was “failed”.

Which protein production does the source give for “SDNLSSEEIQQRAHQITDESLESTRRILGLAIESQDAGIKTITMLDEQKEQLNRIEEGLDQINKDMRETEKTLTELNKCCGLCVCPCNRTKNFESGKAYKTTWGDGGENSPCNVVSKQPGPVTNGQLQQPTTGAASGGYIKRITNDAREDEMEENLTQVGSILGNLKDMALNIGNEIDAQNPQIKRITDKADTNRDRIDIANARAKKLIDS” here?
The protein production was “not failed”.

For “SETRSPGLNNMKPQSLQLVLEEQVLALQQQMAENQAASWRKLKNSQEAQQRQATLVRKLQAKVLQYRSWCQELEKRLEATGGPIPQRWENVEEPNLDELLVRLEEEQQRCESLAEVNTQLRLHMEKADVVNKALREDVEKLTVDWK”, which protein production is on record?
The protein production was “failed”.

With “SFKPVMQKFLHDHVDLQVSALYALQVHCYNSNFPKGMLLRFFVHFYDMEIIEEEAFLAWKEDITQEFPGKGKALFQVNQ” as the sequence, how does the protein production read?
The protein production was “failed”.

Which protein production does the source give for “SGGTLRIYADSLKPNIPYKTILLSTTDTADFAVAESLEKYGLEKENPKDYCIARVMLPPGAQHSDERGAKEIILDDDECPLQIFREWPSDKGILVFQLKRRPP” here?
The protein production was “not failed”.

Which protein production does the source give for “SGILFMSKVGLRGDRRSEGDEVLDPLRQALDSSMQSHNLYQHPQHLAFHVSAPVASTVQQASGLLGPLPHLSSFALQPAHSLLPPLGSHGAGFQENGAKAES” here?
Its protein production is “not failed”.

With “SHIIVIGAGITGVTSAYELIKLGFQVTVIDRHLFPAMETSFANGGQLSACNAEVWNQRSTISKGIKWMSKKDAPLLLNPSFNLHKYSWLFEFLSHIKHYEQNTIETVRLALLARKRLFEIAEIENIDFNLERRGILHIYHTPSDYEIAKNVNDLLNKATLHRYQVNPDEIKTIEPALSGEYCGGYYTPDDATGDIHKFCVGLADSSKRDGVDYKFGWDVNQIELLEKGVIVSCIPSTENMTEPSSQHLRLEADGIVVCGGVGSYQLAHMLGDRVNVYPVKGYSITVHLNDEHSIENAPWVSLLDESAKIVTSRLGKDRLRVAGTAEFNGYNRDIRADRIQPLINWVNANFEISTEHVVPWSGLRPMMPNMMPVVRQGKHPRVFYNTGHGHLGWTLSAATAAIIGQEIQSKIP” as the sequence, how does the protein production read?
The protein production was “failed”.

For “SHRSAAAFVDAERELFVRDQPIGPDDRVLAGLSVAFDASCEEMWLAWGHGACLVPAPRSLVRTGLDLGPWLISRDISIVSTVPTLAGMWPAEALDNVRLLILGGEACSAELVARVASSRREVWNTYGPTEATVVTCAARLEAGQPVAIGLPLAG”, which protein production is on record?
Its protein production is “failed”.

With “SKALLFVIIGSVLVMLLLVGVIIMLLMGNKEESKENASKNTQEVQANPMANKNQEAKEGSNIQQYLVLGPLYAIDAPFAVNLVSQNGRRYLKASISLELSNEKLLNEVKVKDTAIKDTIIEILSSKSVEEVVTNKGKNKLKDEIKSHLNSFLIDGFIKNVFFTDFIIQ” as the sequence, how does the protein production read?
The protein production was “failed”.

For “SKCLERFGPFYLLYKDRLSFVNADASELTFHPDTAVLRLKAPHDALISLLGQSPKSILDTTMGLASDSLVMAAVRNRVTALESQEVIFQVVSRGLATYQTDNKQIEKAMRSIKAVKSDSLTFLKSQTDHSFDIIYADPMFSETIKESENLNAIKPLANGSRLTREWLDEAKRVGRERIIIKAHFRDSVFEELGFERQVRP”, which protein production is on record?
The protein production was “failed”.

With “SKGMALRSVGGMVIESPRNETEHWLLETVGRQAQQAGIGMPTVAIYDSADINAFATGAKRDDSLVAVSTGLLHNMTRDEAEAVLAHEVSHIANGDMVTMTLMQG” as the sequence, how does the protein production read?
The protein production was “not failed”.

With “SKSTKNDVKITALSTSESQIISHMLRLLIEHDTHGKIKPTLVNNLGSSTIQHNALINGDANISGVRYNGTDLTGALKEAPIKDPKKAMIATQQGFKKKFDQTFFDSYGFANTYAFMVTKETAKKYHLETVSDLAKHSKDLRLGMDSSWMNRKGDGYEGFKKEYGFDFGTVRPMQIGLVYDALNTEKLDVALGYSTDGRIAAYDLKVLKDDKQFFPPYAASAVATNELLRQHPELKTTINKLTGKISTSEMQRLNYEADGKGKEPAVVAEEFLKKHHYFD” as the sequence, how does the protein production read?
The protein production was “not failed”.

With “SLDPVSQSKLEQAIHDQIPQLAKTAGKDLEAAAIAVDRHSGEIRAMVGGKRTGYDGFNRVLNASRQIGSLVKPAVYLTALAHPDQYNLATTLEDKPLTLKGSEGSAWTPRNYDRQYRGEVPLYLALAQSLNVPTVALGMKLGIDQVSATLGKLGVNRDEIRPVPSMLLGSFSLTPYQVAQMYQTLTNSGKKAPLSALRSVLDLEGNVLYESLPRVSQAVDQQAAWLTTYAMKQGVQEGTGRYLNAQFSSAALAGKTGTTNDNRDSWFVGVDGREVTTIWLGRDDNQPTKLTGASGALRVYAQYLKYRIPEKLQLPW” as the sequence, how does the protein production read?
Its protein production is “failed”.

With “SLENAGSRPFLADFNGFSYLELKGLHTFERDLGEKMALEMVFLARGPSGLLLYNGQKTDGKGDFVSLALHNRHLEFRYDLGKGAAIIRSKEPIALGTWVRVFLERNGRKGALQVGDGPRVLGESPVPHTMLNLKEPLYVGGAPDFSKLARGAAVASGFDGAIQLVSLRGHQLLTQEHVLRAVDVAPFAG” as the sequence, how does the protein production read?
The protein production was “not failed”.

Which protein production does the source give for “SLEPAQANMDISTGHMILAYMEDHLRNRDRLAKEWQALCAYQAEPNTCATAQGEGNIKKNRHPDFLPYDHARIKLKVESSPSRSDYINASPIIEHDPRMPAYIATQGPLSHTIADFWQMVWESGCTVIVMLTPLVEDGVKQCDRYWPDEGASLYHVYEVNLVSEHIWCEDFLVRSFYLKNVQTQETRTLTQFHFLSWPAEGTPASTRPLLDFRRKVNKCYRGRSCPIIVHCSDGAGRTGTYILIDMVLNRMAKGVKEIDIAATLEHVRDQRPGLVRSKDQFEFALTAVAEEVNAILKALPQ” here?
The protein production was “not failed”.

Which protein production does the source give for “SLGDQKPATIYAPTVRVTPNPAWPQVSWQLLVAKPSAARIIDSPRINVRPTPGELQVYHGAGWAQPATDMLEDSVVRAFEDSGKIAAVARIGAGIRSDYKLAIDVRRFESDYAGQSLPAATIELNAKLLHSSDQRVVASRTFTVARPSSSTDTAAVAAAFEQALTQVTTELVGWTLITGQQDSQTLPRAL” here?
Its protein production is “not failed”.

Which protein production does the source give for “SLGELFAVFNEKLTIPEQEALMFLYAYMPTGDVTDYTGDYYLENVRLSDQARREMPWGKEIPDDVFRHFVLPIRVNNENLDDSRRVFYNELKDRVKNLSLHDAVLEVNHWCHEKVIYTPSDARTSAPLASVKTAYGRCGEESTFTVAALRSVGIPARQVYTPRWAHTDDNHAWVEAWVDGKWYFFGACEPEPVLNLGWFNAPASRGMLMHTKVFGRYTGQEEIMYETPNYTEINVIDNYAPTAKGSVLVTDAEGQPVADATVEFKVYNYAEFYTVATKHTDRSGHASLTAGKGDMLVWASKDGRFGYSKLSFGKDNELKITLDKNASETYSLPLDIVPPAEGANLPEVTPEQRTENDRRMAQEDSIRNAYVATFITEEQARTFAKENKLDETETVRLLIASRGNHQTLTDFLSDAVKADKAGQAISLLKVVSAKDLRDVSPEVLNDHLNNSGLPASEDFCSNVLNPRVANEMITPYKAFFRKEIPASEAEAFRKNPQALVEWCKKEITINNELNSQRIPMSPMGVWKARVADEKSRNIFFVSMARSLGIPAWIDEVTGKIQYRTFNDNNLKNGKVYDVDFEAAQQTQAPTGTLVARYRPIPSLSDPKYYSHFTLSKFRNGTFQLLNYDEGDVDMGGGATWSNLLKNGARLDTGYYMMVTGTRMASGAVLANVTFFTIEEGKTTTVDLVMRESKDQVQVIGNFNSESTYLPIGTSEPQSILQTCGRGYYVVAVLGAGQEPTNHALRDIAALSGEFEKWGRKMVLLFPSEEQYKKFRPSEFPGLPSTITYGIDVDGAIQKQIAESMKLPNSTILPMFIIGDTFNRVVFVSQGYTIGLGEQLMKVIHGEG” here?
The protein production was “not failed”.
